# Laboratory results reported in patent publication US11026999B2, “Insulin glargine/lixisenatide fixed ratio formulation” (SANOFI-AVENTIS DEUTSCHLAND GMBH, priority 2013, dated 2021).
# Columns and labels:
# type 2 diabetic patients [1] = assay: 2-hour postprandial plasma glucose during standardized meal test (Example 1); format: in vivo, human; conditions: mITT; for 2-hour postprandial plasma glucose change from baseline to Week 24 (LOCF), LS Mean (SE): ANCOVA
# Description: (§1) Criteria for Evaluation: • Efficacy: • Primary Endpoint: • Change in HbA1c from baseline to Week 24 • Secondary Endpoints: • Change in 2-hour PPG during meal test from baseline to Week 24 • Change in 2-hour plasma glucose excursion during meal test from baseline to Week 24 • Percentage of patients reaching HbA1c ≤6.5% or <7% at Week 24 • Change in 7-point SMPG profiles from baseline to Week 24 (each time point and mean daily value) • Change in body weight from baseline to Week 24, • Average daily Insulin glargine dose at Week 24 • Change in FPG from baseline to Week 24 • Percentage of patients requiring rescue therapy during the 24-week open-label treatment period • Change in 30-minute and 1-hour PPG and plasma glucose excursion during meal test from baseline to week 24 • Percentage of patients reaching HbA1c <7% at week 24 with no documented symptomatic hypoglycemia during the 24-week open label treatment period • Percentage of patients reaching HbA1c <7% with no weight gain at week 24
# (§2) All continuous secondary efficacy endpoints were analyzed using a similar ANCOVA model with treatment, randomization strata of screening HbA1c (<8%, ≥8%), randomization strata of screening BMI (<30 kg/m^2, ≥30 kg/m^2) and country as fixed effects and using the baseline value of the corresponding parameter as a covariate. Insulin glargine dose was not included in the ANCOVA model as a covariate since patients enrolled were insulin-naïve.
# type 2 diabetic patients [2] = assay: 7-point Self-Monitored Plasma Glucose (SMPG) profile (Example 1); format: in vivo, human; conditions: mITT population
# Description: In yet another aspect of the present invention, the composition as described herein can be used for improving average 7-point SMPG profile. […] Self-monitored plasma glucose (SMPG), as used herein, is in particular the “7-point Self Monitored Plasma Glucose”. “7-point Self Monitored Plasma Glucose” in particular refers to the measurement of plasma glucose seven times a day and calculation of the average plasma glucose concentration therefrom. The “7-point Self Monitored Plasma Glucose” value is in particular an average plasma glucose concentration including fasting and postprandial conditions. In particular, measurements of plasma glucose concentration are performed pre-breakfast, post-breakfast (e.g. 2-hour post-breakfast), pre-lunch, post-lunch (e.g. 2-hour post-lunch), pre-dinner, post-dinner (e.g. 2-hour post-dinner) and at bedtime (see also FIG. 3). The treatment by the combination of the present invention, as described herein, can improve the self-monitored plasma glucose.
# as §1, §2
# type 2 diabetic patients [3] = assay: Symptomatic hypoglycemia (Example 1); format: in vivo, human; conditions: Safety population
# Description: Safety: Adverse events, serious adverse events, symptomatic hypoglycemia, vital signs, electrocardiogram (ECG), safety laboratory values.
# Symptomatic hypoglycemia events were documented on a specific hypoglycemia event form, and not an AE CRF page, and thus were not included in the TEAE summaries.
# type 2 diabetic patients [4] = assay: Major cardiovascular events adjudicated by CAC (Example 1); parameters: species or system human; conditions: in vivo
# Description: One patient in the combination group and one patient in the insulin glargine group had respectively two events (hospitalization for unstable angina and percutaneous coronary intervention (PCI]) and one event (PCI) adjudicated as major cardiovascular events by cardiovascular events adjudication committee (CAC).
# type 2 diabetic patients [5] = assay: Fasting plasma glucose (Example 1); format: in vivo, human; conditions: mITT population; for Fasting plasma glucose change from baseline to Week 24 (LOCF), LS Mean (SE): ANCOVA
# Description: as §1, §2
# type 2 diabetic patients [6] = assay: 2-hour plasma glucose excursion during standardized meal test (Example 1); format: in vivo, human; conditions: mITT population; for 2-hour plasma glucose excursion change from baseline to Week 24 (LOCF), LS Mean (SE): ANCOVA
# Description: The diabetes type 2 patient may have a glucose excursion (in particular a 2-hour postprandial glucose excursion of at least 2 mmol/L, at least 3 mmol/L, at least 4 mmol/L, at least 5 mmol/L, at least 5.5 mmol/L, at least 6 mmol/L, at least 6.5 mmol/L, or at least 7 mmol/L at the onset of the treatment with the composition of the present invention. In the present invention, the glucose excursion is in particular the difference of the 2-hour postprandial plasma glucose concentration and the plasma glucose concentration 30 minutes prior to a meal test.
# as §1, §2
# type 2 diabetic patients [7] = conditions: in vivo
# Description: Safety: The safety analysis was conducted on the safety population, defined as all randomized patients who received at least one dose of IMP (regardless of the amount of treatment administered). The evaluation of AEs, laboratory, vital sign, and ECG data was descriptive.
substance,measurement,setting,value
Gly(A21)-Arg(B31)-Arg(B32)-human insulin [Insulin Glargine],"2-hour postprandial plasma glucose at Week 24 (LOCF), Mean (SD)",type 2 diabetic patients [1],11.55 (2.83) mmol/L
same,"2-hour postprandial plasma glucose at Week 24 (LOCF), Median",type 2 diabetic patients [1],11.10 mmol/L
same,"2-hour postprandial plasma glucose change from baseline to Week 24 (LOCF), Mean (SD)",type 2 diabetic patients [1],−3.96 (4.05) mmol/L
same,"2-hour postprandial plasma glucose change from baseline to Week 24 (LOCF), Median",type 2 diabetic patients [1],-3.90 mmol/L
same,"2-hour postprandial plasma glucose change from baseline to Week 24 (LOCF), LS Mean (SE)",type 2 diabetic patients [1],−4.33 (0.274) mmol/L
same,"2-hour postprandial plasma glucose change from baseline to Week 24 (LOCF), LS Mean (SE)",type 2 diabetic patients [1]; listed as insulin glargine,-4.33 mmol/L
same,"Average 7-point SMPG at Week 24 (LOCF), Mean (SD)",type 2 diabetic patients [2],7.01 (1.15) mmol/L
same,"Average 7-point SMPG at Week 24 (LOCF), Median",type 2 diabetic patients [2],6.94 mmol/L
same,"Average 7-point SMPG change from baseline to Week 24 (LOCF), Mean (SD)",type 2 diabetic patients [2],−2.81 (2.18) mmol/L
same,"Average 7-point SMPG change from baseline to Week 24 (LOCF), Median",type 2 diabetic patients [2],-2.31 mmol/L
same,"Average 7-point SMPG change from baseline to Week 24 (LOCF), LS Mean (SE)",type 2 diabetic patients [2]; ANCOVA,−2.93 (0.101) mmol/L
same,Documented symptomatic hypoglycemia (plasma glucose <54 mg/dL [3.0 mmol/L]): Number of events,type 2 diabetic patients [3],10
same,Documented symptomatic hypoglycemia (plasma glucose <54 mg/dL [3.0 mmol/L]): Number of events per 100 patient years,type 2 diabetic patients [3],13.2 events per 100 patient years
same,Documented symptomatic hypoglycemia (plasma glucose <54 mg/dL [3.0 mmol/L]): Number of patients with events,type 2 diabetic patients [3],4 (2.5%) n (%)
same,Documented symptomatic hypoglycemia (plasma glucose <60 mg/dL [3.3 mmol/L]): Number of events,type 2 diabetic patients [3],18
same,Documented symptomatic hypoglycemia (plasma glucose <60 mg/dL [3.3 mmol/L]): Number of events per 100 patient years,type 2 diabetic patients [3],23.8 events per 100 patient years
same,Documented symptomatic hypoglycemia (plasma glucose <60 mg/dL [3.3 mmol/L]): Number of patients with events,type 2 diabetic patients [3],9 (5.6%) n (%)
same,Documented symptomatic hypoglycemia (plasma glucose <=70 mg/dL [3.9 mmol/L]): Number of events,type 2 diabetic patients [3],79
same,Documented symptomatic hypoglycemia (plasma glucose <=70 mg/dL [3.9 mmol/L]): Number of events per 100 patient years,type 2 diabetic patients [3],104.5 events per 100 patient years
same,Documented symptomatic hypoglycemia (plasma glucose <=70 mg/dL [3.9 mmol/L]): Number of patients with events,type 2 diabetic patients [3],37 (22.8%) n (%)
same,Probable symptomatic hypoglycemia: Number of events,type 2 diabetic patients [3],5
same,Probable symptomatic hypoglycemia: Number of events per 100 patient years,type 2 diabetic patients [3],6.6 events per 100 patient years
same,Probable symptomatic hypoglycemia: Number of patients with events,type 2 diabetic patients [3],5 (3.1%) n (%)
same,Severe symptomatic hypoglycemia: Number of events,type 2 diabetic patients [3],0
same,Severe symptomatic hypoglycemia: Number of events per 100 patient years,type 2 diabetic patients [3],0.0 events per 100 patient years
same,Severe symptomatic hypoglycemia: Number of patients with events,type 2 diabetic patients [3],0 n (%)
same,Symptomatic hypoglycemia: Number of events per 100 patient years,type 2 diabetic patients [3],111.1 events per 100 patient years
same,Symptomatic hypoglycemia: Number of events,type 2 diabetic patients [3]; TEAE period,84
same,Symptomatic hypoglycemia: Number of patients with events,"type 2 diabetic patients [3]; documented, probable and severe, TEAE period",40 (24.7%) n (%)
same,Events adjudicated as major cardiovascular events by CAC,type 2 diabetic patients [4],one
same,Patients with events adjudicated as major cardiovascular events by CAC,type 2 diabetic patients [4],one
same,"Fasting plasma glucose at Week 24 (LOCF), Mean (SD)",type 2 diabetic patients [5],6.20 (1.35) mmol/L
same,"Fasting plasma glucose at Week 24 (LOCF), Median",type 2 diabetic patients [5],5.95 mmol/L
same,"Fasting plasma glucose change from baseline to Week 24 (LOCF), Mean (SD)",type 2 diabetic patients [5],−3.28 (2.39) mmol/L
same,"Fasting plasma glucose change from baseline to Week 24 (LOCF), Median",type 2 diabetic patients [5],-3.00 mmol/L
same,"Fasting plasma glucose change from baseline to Week 24 (LOCF), LS Mean (SE)",type 2 diabetic patients [5],−3.51 (0.128) mmol/L
same,"Fasting plasma glucose change from baseline to Week 24 (LOCF), LS Mean (SE)",type 2 diabetic patients [5]; listed as insulin glargine,-3.51 mmol/L
same,"2-hour plasma glucose excursion at Week 24 (LOCF), Mean (SD)",type 2 diabetic patients [6],5.33 (2.79) mmol/L
same,"2-hour plasma glucose excursion at Week 24 (LOCF), Median",type 2 diabetic patients [6],5.05 mmol/L
same,"2-hour plasma glucose excursion change from baseline to Week 24 (LOCF), Mean (SD)",type 2 diabetic patients [6],−0.61 (3.03) mmol/L
same,"2-hour plasma glucose excursion change from baseline to Week 24 (LOCF), Median",type 2 diabetic patients [6],-0.75 mmol/L
same,"2-hour plasma glucose excursion change from baseline to Week 24 (LOCF), LS Mean (SE)",type 2 diabetic patients [6],−0.67 (0.269) mmol/L
same,"2-hour plasma glucose excursion change from baseline to Week 24 (LOCF), LS Mean (SE)",type 2 diabetic patients [6]; listed as insulin glargine,-0.67 mmol/L
same,TEAE: HLGT: Infections - pathogen unspecified,type 2 diabetic patients [7],31 (19.1%) n (%)
same,"TEAE: HLGT: Ocular infections, irritations and inflammations",type 2 diabetic patients [7],4 (2.5%) n (%)
same,TEAE: HLGT: Viral infectious disorders,type 2 diabetic patients [7],8 (4.9%) n (%)
same,TEAE: HLT: Abdominal and gastrointestinal infections,type 2 diabetic patients [7],1 (0.6%) n (%)
same,"TEAE: HLT: Conjunctival infections, irritations and inflammations",type 2 diabetic patients [7],2 (1.2%) n (%)
same,TEAE: HLT: Diarrhoea (excl infective),type 2 diabetic patients [7],6 (3.7%) n (%)
same,TEAE: HLT: Upper respiratory tract infections,type 2 diabetic patients [7],21 (13.0%) n (%)
same,TEAE: HLT: Urinary tract infections,type 2 diabetic patients [7],3 (1.9%) n (%)
same,TEAE: Infections and infestations,type 2 diabetic patients [7],38 (23.5%) n (%)
same,TEAE: Upper respiratory tract infection,type 2 diabetic patients [7],5 (3.1%) n (%)
same,TEAE: Urinary tract infection,type 2 diabetic patients [7],1 (0.6%) n (%)
same,Treatment emergent SAE: HLGT: Infections - pathogen unspecified,type 2 diabetic patients [7],1 (0.6%) n (%)
same,Treatment emergent SAE: HLT: Urinary tract infections,type 2 diabetic patients [7],1 (0.6%) n (%)
same,Treatment emergent SAE: Infections and infestations,type 2 diabetic patients [7],1 (0.6%) n (%)
same,Treatment emergent SAE: Urinary tract infection,type 2 diabetic patients [7],1 (0.6%) n (%)
same,TEAE: HLT: Dental and oral soft tissue infections,type 2 diabetic patients [7]; po,3 (1.9%) n (%)
